We go through 1 molecule from article PMC8091128.

The assay concerns the target T1, α-catenin (cleaved from GST–α-catenin), P35221.
T1 chain: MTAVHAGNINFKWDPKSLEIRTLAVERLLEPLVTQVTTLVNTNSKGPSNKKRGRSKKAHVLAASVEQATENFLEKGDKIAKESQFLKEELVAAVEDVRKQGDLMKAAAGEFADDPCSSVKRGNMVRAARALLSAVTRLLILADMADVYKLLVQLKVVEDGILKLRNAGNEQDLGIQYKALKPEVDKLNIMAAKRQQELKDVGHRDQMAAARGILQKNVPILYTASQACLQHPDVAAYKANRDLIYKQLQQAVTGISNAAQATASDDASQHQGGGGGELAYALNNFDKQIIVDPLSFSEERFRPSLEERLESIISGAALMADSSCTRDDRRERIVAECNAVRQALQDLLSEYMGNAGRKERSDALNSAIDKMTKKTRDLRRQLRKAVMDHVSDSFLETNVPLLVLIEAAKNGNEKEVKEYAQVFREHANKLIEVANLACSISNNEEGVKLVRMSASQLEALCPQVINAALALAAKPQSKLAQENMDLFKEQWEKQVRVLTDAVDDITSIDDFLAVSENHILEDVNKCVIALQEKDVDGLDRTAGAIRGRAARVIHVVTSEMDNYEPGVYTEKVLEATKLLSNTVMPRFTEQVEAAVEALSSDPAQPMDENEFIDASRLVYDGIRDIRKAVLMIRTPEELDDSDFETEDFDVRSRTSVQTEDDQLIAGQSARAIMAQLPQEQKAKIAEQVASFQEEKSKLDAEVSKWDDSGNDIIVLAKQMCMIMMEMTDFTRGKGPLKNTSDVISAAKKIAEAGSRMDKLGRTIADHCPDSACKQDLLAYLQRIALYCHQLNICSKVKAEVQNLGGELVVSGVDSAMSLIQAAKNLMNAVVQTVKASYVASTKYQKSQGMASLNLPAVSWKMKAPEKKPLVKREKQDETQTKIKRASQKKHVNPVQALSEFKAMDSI
In words: GST pull-down (in vitro reconstitution of cadherin complex), blot quantification. The settings on record: chain shown with the change;; parent: est. 1.0; read off a plot.

B1: GST–β-catenin WT, P35222 S675D (protein)
chain: MATQADLMELDMAMEPDRKAAVSHWQQQSYLDSGIHSGATTTAPSLSGKGNPEEEDVDTSQVLYEWEQGFSQSFTQEQVADIDGQYAMTRAQRVRAAMFPETLDEGMQIPSTQFDAAHPTNVQRLAEPSQMLKHAVVNLINYQDDAELATRAIPELTKLLNDEDQVVVNKAAVMVHQLSKKEASRHAIMRSPQMVSAIVRTMQNTNDVETARCTAGTLHNLSHHREGLLAIFKSGGIPALVKMLGSPVDSVLFYAITTLHNLLLHQEGAKMAVRLAGGLQKMVALLNKTNVKFLAITTDCLQILAYGNQESKLIILASGGPQALVNIMRTYTYEKLLWTTSRVLKVLSVCSSNKPAIVEAGGMQALGLHLTDPSQRLVQNCLWTLRNLSDAATKQEGMEGLLGTLVQLLGSDDINVVTCAAGILSNLTCNNYKNKMMVCQVGGIEALVRTVLRAGDREDITEPAICALRHLTSRHQEAEMAQNAVRLHYGLPVVVKLLHPPSHWPLIKATVGLIRNLALCPANHAPLREQGAIPRLVQLLVRAHQDTQRRTSMGGTQQQFVEGVRMEEIVEGCTGALHILARDVHNRIVIRGLNTIPLFVQLLYSPIENIQRVAAGVLCELAQDKEAAEAIEAEGATAPLTELLHSRNEGVATYAAAVLFRMSEDKPQDYKKRLDVELTSSLFRTEPMAWNETADLGLDIGAQGEPLGYRQDDPSYRSFHSGGYGQDALGMDPMMEHEMGGHHPGADYPVDGLPDLGHAQDLMDGLPPGDSNQLAWFDTDL
Consider B1, for which the ratio to parent is 1.1 fold change.
